Experimental findings from the supplement of paper PMC12042874 are described below.

± gives the uncertainty stated by the source.

A short description of the data set: amyloid nucleation score (Sup35N fusion, yeast selection) (log enrichment); library NNK3; higher = more nucleation; inactive = no reads after selection. In outline: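 Nucleation score: DiMSum log enrichment of output over input reads, centred on the mode score of non-aggregating sequences. Only sequences with at least 100 input reads were kept. Reads came from Illumina sequencing of plasmid inserts before and after 7 days of growth at 30°C without adenine and uracil, in psi-negative yeast expressing Sup35N fused to peptides of 20 random codons after 24 hours of induction with 100 μM copper sulfate.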
As to RCTVNRRQSRSAHGMGPSSS, the amyloid nucleation score result was “inactive”.

For HESKTMRKEEIMYTRWYKVL, the amyloid nucleation score entry was “inactive”.

As to TTNSQAWPMLTAVRLVYNEG, the amyloid nucleation score entry is “inactive”. The entry for FFYYLRSVLHSSYLFRRDVI is “inactive”; for CFAKCFMKNLRSIGRVFLMG it is “inactive”; for SFLIDPTHGLYSLRFFIFCW it is “inactive”. Consider YFYFVTHRDELGMSGPVTWA, for which the amyloid nucleation score entry was “inactive”.

Regarding VKLFKVPLVLSMRL, the amyloid nucleation score entry was “inactive”. With DLWIYIVLYVVAHVALYKDG the entry was “inactive”; with VVCLLALKIYDMLCRCQDVV, “inactive”. The entry for YGLHTGKSKALQQRIVW is “inactive”. With CCMVYGGYMM the entry was “inactive”; with TNDTLFFVTSLVADPVERIS, “inactive”; with SFHLQVLPRSGVLACISTGF, “inactive”. Consider MERVRGRRMGVIVAFDVDGW, for which the amyloid nucleation score amounted to 1.11 ± 0.19. With VMRLHRCKELVCDSIYTLRG, the amyloid nucleation score result is “inactive”. The figure for QDHDVSYSSCPGYSVMVMEG is -0.399 ± 0.8. With PLHRSE the entry was “inactive”; with MLLCDKFVVCTCIGVQVYSY, 2.19 ± 0.087; with SLAVGLLNCLL, 2.17 ± 0.075. With NLGNVHVLLDQSEPVHCILL the entry was “inactive”. As to INTNAYSGLEIYRYSTIAKG, the amyloid nucleation score entry was “inactive”. With FSCSNSLTMVFVEDFNHATY the entry was “inactive”; with VCKVTFMCAFRHDYSKRYYG, 0.35 ± 0.48; with RASTISLGKLVQLYLYSRRL, 0.468 ± 0.3. The figure for WLEDTSSTDF is 0.348 ± 0.22. With VGSGTQSWVRNEMRSMLDLW the entry was “inactive”. LDARN had an amyloid nucleation score of -0.213 ± 1.5.

For the substance FAGEATVDTWTIFMCVIRGW, the amyloid nucleation score is -0.225 ± 0.53. Take VDNWFVFFYGYSGLLYGSHY: the amyloid nucleation score entry is “inactive”. In the case of YRYFGTAAMKRICHRNSIVS, the amyloid nucleation score entry was “inactive”. The entry for WRPFWYIGFHVNVTRG is “inactive”; for NNSSLRTEVLCFDGISQFGG it is “inactive”. The entry for RGNATGSIKD is “inactive”; for HELELRFLSGWSREFLELEG it is “inactive”; for YSNSELSGECRLLHKITSD it is “inactive”. The entry for RDPDGRIYMYGLDVIQYVTN is “inactive”; for RRRLG it is “inactive”. As for CKNLWRVLGISPTRSSSMRV, the amyloid nucleation score result is “inactive”. The figure for HAVPVYD is -0.394 ± 1.9; for PRDGVFLVKGDRPC it is “inactive”; for VFNSSKDLVSEKEPLRYMIG it is “inactive”. With ILSLSQMNT the entry was “inactive”; with MVVVPDQLRVTGMRSGGKSG, “inactive”.

DFMRVGVTRRALRVLSKSSD: the amyloid nucleation score result is “inactive”. With EQIGGI the entry was “inactive”. With SLWYIRSLLCFEVLSLFHLL the entry was “inactive”; with IYSMYQCLFVEHFS, “inactive”; with YSACSSGVPRCLDMSRATVE, -0.055 ± 1.1. With KFLLTWK the entry was “inactive”; with LMYLTCPPRGDSTFPKVIRQ, “inactive”; with ANSDCLFARFDRLFDVSVED, -0.295 ± 0.71. CANQGGCIICDATYQCVIIA yielded an amyloid nucleation score of 0.649 ± 0.14. As for YSFSRY, the amyloid nucleation score result was “inactive”. With NTWILNC the entry was “inactive”.

Turning to ALPPSVF, the amyloid nucleation score entry is “inactive”. With FLWSLLYIFIVCGFCNPSRR the entry was “inactive”. The entry for KDLWCSDSRS is “inactive”; for GFSYM it is “inactive”.

For FVRDRFTIMFEWIAVLRLEL, the amyloid nucleation score result was “inactive”. The entry for TRLCFIAVPLSFFMVWDTSR is “inactive”; for NVPGLSCNTSARLWRSSRLS it is “inactive”; for EFITSYMFSFVYVKNLWCKY it is “inactive”. With TIYNEGCVCKVYKESLGGSA the entry was “inactive”; with HFVLCDHYVR, “inactive”; with DYLPFHLMERDKVALAPWWA, “inactive”. In the case of FNDYCSIKKSLTKSMYDLNG, the amyloid nucleation score entry was “inactive”. The figure for LIAYRVGHSGSAQYSSTCGW is 1.04 ± 0.13; for WINNIAPPYGQ it is “inactive”. With ARDNDLLNCMMLGLFSRLAF the entry was “inactive”. With IFNLMFYFVVRNE the figure was 3.01 ± 0.071; with HVLNEWKSNTGLVVSSAWFC, 1.43 ± 0.087; with RSKEMNVKASKNSMVHVSEV, “inactive”. As to TVRFEGIGSHVRHTFCALDF, the amyloid nucleation score result is “inactive”. The entry for NFIYILLSIINYWWCTYIVY is “inactive”; for VLLYDECMMFVNSLMFTNSE it is -0.501 ± 0.66. With NTEITQLSIVLFCILYQYSV the figure was 1.46 ± 0.11.

On to QNFRFYLTCVSGSGHYRSYT, for which the amyloid nucleation score was 1.37 ± 0.093.

For the substance GNIAYSVLMWSDCKTCQCDV, the amyloid nucleation score amounted to 1.82 ± 0.058. With ANHCLCRGSKYLRKRVNLAI the entry was “inactive”; with NWFWLF, “inactive”; with PSDDYGHLVWLTICCNCLD, 1.6 ± 0.079. With NYGYRRPVMILPVHR the entry was “inactive”; with KNEAPRTGQTRPRSTGMYRI, “inactive”. With GCYWSRLGVDHRMPMFIARD the entry was “inactive”; with MMFDYLLLRGHNAQIQLWWY, “inactive”.

With SILKFNQSLQSLFSNYYHLC, the amyloid nucleation score was determined as 1.14 ± 0.097. The figure for LNILIFFCFYGVWKIWKIIS is -0.665 ± 1.3. With IRLFHEAIKGDLC the entry was “inactive”; with VILNCR, “inactive”; with FNTPDRAPLLATCAVHANLH, “inactive”. The entry for FIAFWCVNLRTL is “inactive”; for RQWQGNFSSVGFLEIKDALF it is “inactive”; for TDVIYVDGPLA it is “inactive”.

Consider NFVRGTGFVGRLESLNWKV, for which the amyloid nucleation score result was “inactive”.

With RSAPCC, the amyloid nucleation score entry is “inactive”.

Regarding VTSNSDRT, the amyloid nucleation score result is “inactive”.
